From article PMC4705439 (Kidney international, 2016)
Residue numbers refer to the chain shown, from its start. In names and notes the source's numbering stands. Blank lines part the entries; values can stand above or below the binder they belong to.

Tests used:
[1] = biological target: the molecule itself; experiment: non-reducing SDS-PAGE with immunoblot
[2] = biological target: T1, Peroxiredoxin 6 (PRDX6), native, human kidney (human (endogenous in human kidney)), P30041; experiment: non-reducing SDS-PAGE with immunoblot; conditions: remark: other sources report otherwise
T1 chain: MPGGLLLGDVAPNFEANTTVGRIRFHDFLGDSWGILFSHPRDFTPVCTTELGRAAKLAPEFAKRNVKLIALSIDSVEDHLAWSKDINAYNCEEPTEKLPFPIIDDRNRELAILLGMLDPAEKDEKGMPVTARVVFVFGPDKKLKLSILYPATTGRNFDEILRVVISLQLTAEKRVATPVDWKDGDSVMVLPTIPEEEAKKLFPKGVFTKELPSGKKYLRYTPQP

[3] = biological target: the molecule itself; experiment: non-reducing SDS-PAGE with Coomassie stain

B1: Peroxiredoxin 6 (PRDX6), native, mouse kidney (natural protein, mouse (endogenous in mouse kidney), UniProt O08709 1-224, looked up)
chain: MPGGLLLGDEAPNFEANTTIGRIRFHDFLGDSWGILFSHPRDFTPVCTTELGRAAKLAPEFAKRNVKLIALSIDSVEDHLAWSKDINAYNGETPTEKLPFPIIDDKGRDLAILLGMLDPVEKDDNNMPVTARVVFIFGPDKKLKLSILYPATTGRNFDEILRVVDSLQLTGTKPVATPVDWKKGESVMVVPTLSEEEAKQCFPKGVFTKELPSGKKYLRYTPQP
stoichiometry N [1]: 2

stoichiometry N [2]: 2
B2: Peroxiredoxin 6 (PRDX6), native, human kidney, P30041 1-224 (natural protein)
chain: T1 chain

B3: N-terminal histidine-tagged PRDX6 with cysteine 47 changed to alanine (HisPRDX6-C47A) (natural protein, UniProt P30041 1-224, looked up)
chain: T1 chain with C47A
stoichiometry N [3]: 2
